Article PMC6868365 (Nucleic Acids Research, 2019)

Legend:
DnaA Q208A = target: T1, DnaA Q208A (Escherichia coli, UniProt P03004 1-467, Q208A); experiment: native gel or EMSA
T1 sequence (looked up): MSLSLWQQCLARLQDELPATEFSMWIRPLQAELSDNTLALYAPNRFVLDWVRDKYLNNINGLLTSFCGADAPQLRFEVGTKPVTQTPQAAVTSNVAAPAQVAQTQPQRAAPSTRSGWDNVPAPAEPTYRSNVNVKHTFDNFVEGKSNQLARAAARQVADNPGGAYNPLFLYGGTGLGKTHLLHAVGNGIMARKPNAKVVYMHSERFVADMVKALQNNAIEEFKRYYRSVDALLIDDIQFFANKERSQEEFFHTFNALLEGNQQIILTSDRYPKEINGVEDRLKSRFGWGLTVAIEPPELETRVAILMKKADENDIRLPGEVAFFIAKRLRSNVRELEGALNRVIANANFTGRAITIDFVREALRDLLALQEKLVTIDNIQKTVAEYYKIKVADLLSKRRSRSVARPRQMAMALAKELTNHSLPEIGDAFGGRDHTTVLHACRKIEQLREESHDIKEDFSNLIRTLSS

DnaA L290A = target: T2, DnaA L290A (Escherichia coli, UniProt P03004 1-467, L290A); experiment: native gel or EMSA
T2 sequence (looked up): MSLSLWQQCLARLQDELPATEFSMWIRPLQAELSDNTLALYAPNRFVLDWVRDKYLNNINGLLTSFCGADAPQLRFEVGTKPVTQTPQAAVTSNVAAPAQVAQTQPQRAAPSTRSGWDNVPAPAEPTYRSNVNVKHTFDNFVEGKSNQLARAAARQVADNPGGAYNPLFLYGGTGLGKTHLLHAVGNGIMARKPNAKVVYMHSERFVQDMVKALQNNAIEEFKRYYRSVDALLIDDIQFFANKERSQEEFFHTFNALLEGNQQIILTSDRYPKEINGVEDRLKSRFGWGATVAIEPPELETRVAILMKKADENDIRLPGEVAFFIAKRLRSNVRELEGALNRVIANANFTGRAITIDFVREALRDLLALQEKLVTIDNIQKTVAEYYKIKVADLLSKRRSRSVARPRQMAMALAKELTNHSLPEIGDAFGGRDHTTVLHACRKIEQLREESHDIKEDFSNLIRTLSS

B1: DiaA (DnaA initiator-associating protein) (natural protein, Escherichia coli, UniProt P66817 1-196, looked up)
chain: MQERIKACFTESIQTQIAAAEALPDAISRAAMTLVQSLLNGNKILCCGNGTSAANAQHFAASMINRFETERPSLPAIALNTDNVVLTAIANDRLHDEVYAKQVRALGHAGDVLLAISTRGNSRDIVKAVEAAVTRDMTIVALTGYDGGELAGLLGPQDVEIRIPSHRSARIQEMHMLTVNCLCDLIDNTLFPHQDD
Question: Does B1 bind (DnaA Q208A)?
Answer: Result: binds

Question: Does B1 bind (DnaA L290A)?
Answer: Result: binds
